In the DeepSol protein solubility set:

test: soluble on expression in E. coli; label from the status in PepcDB or PDB records

Sequence | soluble on expression in E. coli
MLSYRHSFHAGNHADVLKHTVQSLIIESLKEKDKPFLYLDTHAGAGRYQLGSEHAERTGEYLEGIARIWQQDDLPAELEAYINVVKHFNRSGQLRYYPGSPLIARQLLREQDSLQLTELHPSDYPLLRSGFQKDSRARVEKADGFQQLKAKLPPVSRRGLILIDPPYEMKTDYQAVVSGIAEGYKRFATGTYALWYPVVLRQQIKRMIHDLEATGIRKILQIELAVLPDSDRRGMTASGMIVINPPWKLEQQMNNVLSWLHSKLVPAGTGHATVSWIVPE | not soluble
MAHHHHHHMGTLEAQTQGPGSMTYETILVERDQRVGIITLNRPQALNALNSQVMNEVTSAATELDDDPDIGAIIITGSAKAFAAGADIKEMADLTFADAFTADFFATWGKLAAVRTPTIAAVAGYALGGGCELAMMCDVLIAADTAKFGQPEIKLGVLPGMGGSQRLTRAIGKAKAMDLILTGRTMDAAEAERSGLVSRVVPADDLLTEARATATTISQMSASAARMAKEAVNRAFESSLSEGLLYERRLFHSAFATEDQSEGMAAFIEKRAPQFTHR | soluble
MELNAVKSSYARWAPIYDKTFGAITNVGRHAAVDYINAHDATELLEVGVGTGLSLPNYRPGLKVTGIDFSEEMLAKARAKVESLGLGHVQSLRQMDARDLDFADASFDVVAAMHIISVVPEPERVMAEMARVCKPGGLIVITNHFARDSGMLARVERFAAPFANLLGWHPDFEISSVLKQPLEHHHHHH | not soluble
SLNVNFFVTCIGDALKSRMARDSVLLLEKLGCRVNFPEKQGCCGQPAINSGYIKEAIPGMKNLIAALEDNDDPIISPAGSCTYAVKSYPTYLADEPEWASRAEKVAARMQDLTSFIVNTLGVVDVGASLQGRAVYHPSCSLARKLGVKDEPLTLLKNVRGLELLTFAEQDTCCGFGGTFSVKMAEISGEMVKEKVAHLMEVRPEYLIGADVSCLLNISGRLQREGQKVKVMHIAEVLMSR | soluble
MGSDKIHHHHHHMNQSKTAIVIDSSANIAPEIVRKYHFTIVNQPVMFGKHVYHENMDIDSDEFYRMLKLEKYHPTASQIPMKEMQEVFSNLAQAGYEAALCIGLSGGLSGFINSVSASVPAIKDLQVYPYDSGSILAGVEKVAILASHLLDNGVDIHEVLHQMRKYRRQTQAYIAVNNIKELQNMGNISNRTSLVGSFFGMRPILTINHQGRLEMVGKERQMKNAMEAIEEIFDKQLVDHTNLVVTVIDANDVDRSMQWQSTLKAKYPGMQVESQQIGPYVGTYTGSKAIGLIWSPKL | not soluble
MSHLNYETRLPLGQATIDHFMGLPAHPTKCQATYVWIDGTGEHLRAKTRTINTKPQYLSEYPIWNYDGSSTGQADGLNSDRYLRPVAVFPDPFLGGLNVLVMCDTLDHEMKPTATNHRQMCAELMKKVSDQQPWFGMEQEYLIVDRDEHPLGWPKHGYPAPQGKYYCGIGADRAFGREVVETHYRACLHAGITIFGSNAEVTPGQWEFQIGTCLGIEMGDQLWMARYILHRVAEQFGVCVSLDPKPRVTMGDWNGAGCHTNFSTIDMRRPDGLETIIAAMEGLKKTHSEAMKVYDPNGGHDNLRRLTGRHETSQADQFSWGIANRACSVRIPRQVADEGRGYLEDRRPSSNCDPYLVTAMIVKSVLIN | not soluble
MKNTQFALFMVLNGRATEALTFYQEAFAGDILFKITNQEFKERLNPSLTIPAGEEHWLSHSILQMDTFQLQLADNPLFAGMNTTPTEQLTLSLTVNSRHSAKTIFEKLTCHPESCIIQEPIENEFATFYAIVKDPFGLVTQITHEKQADPTKKGS | not soluble
MFLTRSEYDRGVSTFSPEGRLFQVEYSLEAIKLGSTAIGIATKEGVVLGVEKRATSPLLESDSIEKIVEIDRHIGCAMSGLTADARSMIEHARTAAVTHNLYYDEDINVESLTQSVCDLALRFGEGASGEERLMSRPFGVALLIAGHDADDGYQLFHAEPSGTFYRYNAKAIGSGSEGAQAELLNEWHSSLTLKEAELLVLKILKQVMEEKLDENNAQLSCITKQDGFKIYDNEKTAELIKELKEKEAAESPEEADVEMS | soluble
MKSVVLGILSSISDEVNLEMIKKYDVKLARRISGGGSVFHDMGNINYTFITSGQGGIDYLYGYLLRGTISAIENLVNDRVEVYNETDIAFKGYKISGNAGYINEDKYLLHGTLLVSSNLDI | soluble
